Data on one substance can be found in publication PMC5626764.

In this test the target is SHG-labeled wildtype NiV G ectodomain (Nipah virus) (UniProt Q9IH62). Briefly: second harmonic generation (SHG).

Turning to “ephrinB2-229 (10881-HCCH, SinoBiological Inc.) (domain or fragment)”, the ΔSHG was -15.9%.
